In publication PMC4637903:

target: wild-type β4 integrin (co-immunoprecipitations from transfected cells) (UniProt P16144); experiment: co-immunoprecipitation (IP: β4) and Western blot, densitometry; details: parent: 1.0
Chain of UniProt P16144 (P16144 28-1822): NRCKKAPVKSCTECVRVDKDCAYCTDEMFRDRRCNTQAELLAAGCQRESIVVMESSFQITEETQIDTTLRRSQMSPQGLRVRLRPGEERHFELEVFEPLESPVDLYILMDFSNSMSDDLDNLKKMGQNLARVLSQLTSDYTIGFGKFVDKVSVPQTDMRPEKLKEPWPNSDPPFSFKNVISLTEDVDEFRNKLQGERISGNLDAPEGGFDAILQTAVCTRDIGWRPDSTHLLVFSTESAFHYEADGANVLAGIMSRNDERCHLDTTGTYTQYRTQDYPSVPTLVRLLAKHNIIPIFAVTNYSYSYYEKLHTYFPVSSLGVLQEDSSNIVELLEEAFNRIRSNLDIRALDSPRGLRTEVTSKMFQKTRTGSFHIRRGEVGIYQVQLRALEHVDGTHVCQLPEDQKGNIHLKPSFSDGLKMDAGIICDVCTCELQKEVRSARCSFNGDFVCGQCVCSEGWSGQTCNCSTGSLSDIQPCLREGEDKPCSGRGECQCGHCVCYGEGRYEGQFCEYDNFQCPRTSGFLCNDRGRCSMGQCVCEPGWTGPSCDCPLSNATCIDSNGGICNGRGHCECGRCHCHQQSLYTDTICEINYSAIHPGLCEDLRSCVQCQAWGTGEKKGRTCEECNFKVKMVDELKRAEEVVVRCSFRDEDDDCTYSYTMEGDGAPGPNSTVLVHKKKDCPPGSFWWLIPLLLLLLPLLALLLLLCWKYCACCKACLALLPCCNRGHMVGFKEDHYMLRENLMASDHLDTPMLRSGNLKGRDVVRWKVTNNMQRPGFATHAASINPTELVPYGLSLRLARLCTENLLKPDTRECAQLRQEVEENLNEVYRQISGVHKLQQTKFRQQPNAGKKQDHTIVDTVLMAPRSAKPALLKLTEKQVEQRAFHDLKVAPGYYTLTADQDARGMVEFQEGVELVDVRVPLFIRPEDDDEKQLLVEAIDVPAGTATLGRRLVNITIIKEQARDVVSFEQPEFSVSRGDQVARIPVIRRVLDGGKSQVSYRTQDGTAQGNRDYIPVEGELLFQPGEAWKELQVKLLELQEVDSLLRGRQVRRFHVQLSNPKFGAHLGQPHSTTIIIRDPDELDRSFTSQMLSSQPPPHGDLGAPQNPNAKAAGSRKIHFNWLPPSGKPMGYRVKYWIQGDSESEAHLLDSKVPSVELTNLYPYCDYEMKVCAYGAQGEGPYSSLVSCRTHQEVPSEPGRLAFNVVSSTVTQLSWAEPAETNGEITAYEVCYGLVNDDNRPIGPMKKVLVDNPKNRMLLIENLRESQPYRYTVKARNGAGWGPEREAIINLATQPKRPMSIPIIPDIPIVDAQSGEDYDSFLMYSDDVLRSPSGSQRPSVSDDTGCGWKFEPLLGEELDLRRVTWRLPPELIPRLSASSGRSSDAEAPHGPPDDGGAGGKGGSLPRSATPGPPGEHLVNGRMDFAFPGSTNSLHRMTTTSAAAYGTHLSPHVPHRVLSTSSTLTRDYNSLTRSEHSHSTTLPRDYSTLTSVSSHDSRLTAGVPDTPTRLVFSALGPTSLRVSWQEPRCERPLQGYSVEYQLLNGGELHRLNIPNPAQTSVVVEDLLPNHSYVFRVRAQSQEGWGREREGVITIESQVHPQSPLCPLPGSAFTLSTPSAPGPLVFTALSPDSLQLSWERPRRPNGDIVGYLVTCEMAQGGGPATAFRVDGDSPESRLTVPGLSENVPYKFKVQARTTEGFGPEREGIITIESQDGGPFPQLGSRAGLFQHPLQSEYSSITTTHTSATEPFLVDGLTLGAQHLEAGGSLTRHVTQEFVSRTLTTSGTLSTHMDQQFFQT

ratio to parent	Substance
0.2	wild-type FAK (co-immunoprecipitations from transfected cells) E380A; K381A; Q382A
0.7	wild-type FAK (co-immunoprecipitations from transfected cells) R385A; S386A

target: wild-type FAK (co-immunoprecipitations from transfected cells); experiment: co-immunoprecipitation (IP: Myc (β4)) and Western blot, densitometry; details: parent: 1.0

Substance	ratio to parent
wild-type β4 integrin (co-immunoprecipitations from transfected cells) (from UniProt P16144) Y1440F	1.4
wild-type β4 integrin (co-immunoprecipitations from transfected cells) (from UniProt P16144) Y1494F	1.1
wild-type β4 integrin (co-immunoprecipitations from transfected cells) (from UniProt P16144) Y1526F	0.5

Other lines, results leading:

ratio to parent	Substance
1.1	wild-type β4 integrin (co-immunoprecipitations from transfected cells) (from UniProt P16144) Y1422F
0.3	wild-type β4 integrin (co-immunoprecipitations from transfected cells) (from UniProt P16144) Y1642F

target: wild-type β4 integrin (co-immunoprecipitations from transfected cells) (UniProt P16144); experiment: as above; details: parent: 1.0

Substance	ratio to parent
wild-type FAK (co-immunoprecipitations from transfected cells) E380A	0.3
wild-type FAK (co-immunoprecipitations from transfected cells) K381A	0.3
wild-type FAK (co-immunoprecipitations from transfected cells) N379A	1.4
wild-type FAK (co-immunoprecipitations from transfected cells) S386A	1.2

Further lines, results first:

ratio to parent	Substance
1.2	wild-type FAK (co-immunoprecipitations from transfected cells) G383A
0.3	wild-type FAK (co-immunoprecipitations from transfected cells) Q382A
0.5	wild-type FAK (co-immunoprecipitations from transfected cells) R385A
